Test results from patent publication US20240218337A1.
Where a chain is given by its changes, count along the chain named.

B1: example_7 (protein, part only; not given: Fc, Gas6 trap, linkers, not shown: small tags and cut ends)
chain, part: EVQLQESGPGLVKPSQTLSLTCTVSGYSITSDYWNWIRKPPGKGLEYMGYISYTGSTYYNPSLKSRITISRDTSKNQYSLKLSSVTAADTAVYYCARRGEWLSPFAYWGQGTLVTVSSDIQMTQSPSSLSASVGDRVTITCKSSQSLLYSSNQKNSLAWYQQKPGKAPKLLIYWASTRESGVPSRFSGSGSGTDFTLTISSLQPEDFATYYCQQYYTYPFTFGQGTKLEIK
B2: example_8 (protein, part only; not given: Fc, Gas6 trap, linkers, not shown: small tags and cut ends)
chain, part: B1 chain, part with N35D, K64R, E100G, A106V, S144R, Y149F
B3: example_3 (protein, part only; not given: constant regions, Gas6 trap, linker, not shown: a dimerising Fc or GST; small tags and cut ends)
heavy, part: EVQLQESGPGLVKPSQTLSLTCTVSGYSITSDYWNWIRKPPGKGLEYMGYISYTGSTYYNPSLKSRITISRDTSKNQYSLKLSSVTAADTAVYYCARRGEWLSPFAYWGQGTLVTVSS
light: DIQMTQSPSSLSASVGDRVTITCKSSQSLLYSSNQKNSLAWYQQKPGKAPKLLIYWASTRESGVPSRFSGSGSGTDFTLTISSLQPEDFATYYCQQYYTYPFTFGQGTKLEIK
B4: example_5 (protein, part only; not given: constant regions, Gas6 trap, linker, not shown: a dimerising Fc or GST; small tags and cut ends)
heavy, part: B3 heavy, part with N35D, K64R, E100G, A106V
light: B3 light with S26R, Y31F

Key:
[1] = target: human Gas6 recombinant protein (human) (UniProt Q14393); assay: ELISA, plate-coated test molecule, serially diluted hGas6
[2] = target: PD-L1 on PD-L1 aAPC/CHO-K1 cells (human) (UniProt Q9NZQ7); assay: cell-based or functional assay
[3] = target: Recombinant human PD-L1 protein (human) (UniProt Q9NZQ7); assay: ELISA, plate-coated recombinant human PD-L1, anti-human IgG-HRP

Sequence of UniProt Q14393 (Q14393 49-678 limits assumed): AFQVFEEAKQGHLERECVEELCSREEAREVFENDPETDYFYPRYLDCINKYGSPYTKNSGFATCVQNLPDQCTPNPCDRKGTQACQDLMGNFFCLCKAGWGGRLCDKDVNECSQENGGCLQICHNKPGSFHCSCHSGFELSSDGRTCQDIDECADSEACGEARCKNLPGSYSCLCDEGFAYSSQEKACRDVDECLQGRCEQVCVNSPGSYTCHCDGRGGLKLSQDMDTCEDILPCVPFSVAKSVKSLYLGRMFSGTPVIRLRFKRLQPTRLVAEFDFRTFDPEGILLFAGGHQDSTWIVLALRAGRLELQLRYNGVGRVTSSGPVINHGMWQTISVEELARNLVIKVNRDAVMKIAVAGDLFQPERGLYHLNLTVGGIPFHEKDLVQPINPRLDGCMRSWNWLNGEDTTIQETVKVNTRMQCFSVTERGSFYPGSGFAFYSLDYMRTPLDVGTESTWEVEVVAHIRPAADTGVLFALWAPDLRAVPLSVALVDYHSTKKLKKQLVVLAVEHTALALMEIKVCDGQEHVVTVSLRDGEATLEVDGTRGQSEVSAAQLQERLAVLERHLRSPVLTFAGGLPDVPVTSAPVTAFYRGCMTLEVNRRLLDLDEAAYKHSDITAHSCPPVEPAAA

Molecule	EC50 [1] [nM]	PD-L1/PD-1 blockade assay, EC50 (luciferase in PD-1 effector cells) [2] [nM]	EC50 [3] [nM]
Axl-Fc (Fc fusion)	< 3		
B1		< 3	< 0.1
B2		< 3	< 0.1
B3		< 3	< 0.1
B4		< 3	< 0.1
